Source: patent US20230057904A1 (Chugai, published 2023)
Substitutions are numbered along the chain they refer to.

B1: CDA0013/TR01 (bispecific antibody, V domains shown)
VH 1: QSLEESGGRLVTPGTPLTLTCTVSGIDLNNYGVGWVRQPPGKGLEWIGYINALGSAYYASWAKGRFTISRTSTTVDLKITSPTTEDTATYFCARVRYLYIGGGGYWIDRLDLWGQGTLVTVSS
VL 1: DVVMTQTPASVEAAVGDTVTIKCQASQSISSCLSWYQQKPGQPPKLLIYYASTLASGVPSRFSGSGSGTEFTLTISGLQCDDAATYYCLGVVSYVSADGGFGGGTEVVVK
VH 2: QVQLVESGGGVVQPGGSLRLSCAASGFTFSNAWMHWVRQAPGKGLEWVAQIKDKSQNYATYVAESVKGRFTISRADSKNSIYLQMNSLKTEDTAVYYCRYVHYAAGYGVDIWGQGTTVTVSS
VL 2: DIVMTQSPLSLPVTPGEPASISCRSSQPLVHSNRNTYLHWYQQKPGQAPRLLIYKVSNRFSGVPDRFSGSGSGTDFTLKISRVEAEDVGVYYCGQGTQVPYTFGQGTKLEIK
notes: CDA0013 is rabbit-derived; IgG format by Fab arm exchange, silent Fc; also called anti-CLDN6/CD3 bispecific antibody CDA0013/TR01
B2: 6PHU3/TR01 (bispecific antibody, V domains shown)
VH 1: EVQLQQSGPELVKPGASMKISCKASGYSFTGYTMNWVKQSHGKNLEWIGLINPYNGGTIYNQKFKGKATLTVDKSSSTAYMELLSLTSEDSAVYYCARDYGFVLDYWGQGTTLTVSS
VL 1: DIVLTQSPSIMSVSPGEKVTITCSASSSVSYMHWFQQKPGTSPKLCIYSTSNLASGVPARFSGRGSGTSYSLTISRVAAEDAATYYCQQRSNYPPWTFGGGTKLEIK
VH 2: B1 VH 2
VL 2: B1 VL 2
notes: IgG format by Fab arm exchange, silent Fc; also called anti-CLDN6/CD3 bispecific antibody 6PHU3/TR01

Columns and labels:
[1] = biological target: T1, mouse CLDN6 (mouse, UniProt Q9Z262 1-219); assay: flow cytometry, FreeStyle 293-F transfectants expressing mouse CLDN6, 10 micro g/mL antibody, anti-human IgG Alexa Fluor 647; MFI
T1 construct: also called mCLDN6; mCLDN6/FS293
T1 chain: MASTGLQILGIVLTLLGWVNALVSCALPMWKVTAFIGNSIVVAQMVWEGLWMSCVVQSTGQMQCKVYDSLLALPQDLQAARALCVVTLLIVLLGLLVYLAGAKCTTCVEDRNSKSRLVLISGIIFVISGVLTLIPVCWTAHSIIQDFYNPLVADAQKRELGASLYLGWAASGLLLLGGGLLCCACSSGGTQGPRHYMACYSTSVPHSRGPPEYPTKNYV
Procedure: (§1) Antibodies were mixed with FreeStyle™ 293-F cells transiently expressed human and mouse CLDN3, 4, 6, and 9 at final concentration of 10 micro g/mL. After 1 hour of incubation, cells were washed by 0.1% BSA containing D-PBS(−), and incubated in 5 micro g/mL of either Goat anti-Human IgG (H+L) Cross-Adsorbed Secondary Antibody, Alexa Fluor 647 (Invitrogen, A21445) or Goat anti-Mouse IgG (H+L) Highly Cross-Adsorbed Secondary Antibody, Alexa Fluor 647 (Invitrogen, A21236), for 1 hour. Cells were then washed with 0.1% BSA containing D-PBS(−), resuspended in 5 micro L of 0.1% BSA containing D-PBS(−), and analyzed by flow cytometer (iQue Screener, intellicyte).

[2] = biological target: T2, mouse CLDN9 (mouse, UniProt Q9Z0S7 1-217); assay: flow cytometry, FreeStyle 293-F transfectants expressing mouse CLDN9, anti-human IgG Alexa Fluor 647; MFI
T2 construct: also called mCLDN9; mCLDN9/FS293
T2 sequence: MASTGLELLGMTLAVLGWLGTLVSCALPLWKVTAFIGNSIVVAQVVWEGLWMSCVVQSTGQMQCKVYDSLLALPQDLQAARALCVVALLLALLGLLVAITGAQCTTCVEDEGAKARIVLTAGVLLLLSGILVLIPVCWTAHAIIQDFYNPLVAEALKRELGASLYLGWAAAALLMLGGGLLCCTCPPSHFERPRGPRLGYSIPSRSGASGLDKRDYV
Procedure: as §1

[3] = biological target: T3, human CLDN9 (human, UniProt O95484 1-217); assay: flow cytometry, FreeStyle 293-F transfectants expressing human CLDN9, anti-human IgG Alexa Fluor 647; MFI
T3 construct: also called hCLDN9; hCLDN9/BaF
T3 sequence: T2 sequence with V86I, L124I, S128A, S188P, H189Q, F190V
Procedure: as §1

[4] = biological target: T4, human CLDN3 (human, UniProt O15551 1-220); assay: flow cytometry, FreeStyle 293-F transfectants expressing human CLDN3, anti-human IgG Alexa Fluor 647; MFI
T4 construct: also called hCLDN3; hCLDN3/BaF
T4 sequence: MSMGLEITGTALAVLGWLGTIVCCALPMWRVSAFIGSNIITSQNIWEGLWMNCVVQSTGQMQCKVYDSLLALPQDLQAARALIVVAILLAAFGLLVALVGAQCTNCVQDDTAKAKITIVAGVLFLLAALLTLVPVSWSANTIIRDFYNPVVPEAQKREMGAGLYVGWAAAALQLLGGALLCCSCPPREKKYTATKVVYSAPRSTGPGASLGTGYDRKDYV
Procedure: as §1

[5] = biological target: T5, mouse CLDN3 (mouse, UniProt Q9Z0G9 1-219); assay: flow cytometry, FreeStyle 293-F transfectants expressing mouse CLDN3, anti-human IgG Alexa Fluor 647; MFI
T5 construct: also called mCLDN3; mCLDN3/FS293
T5 sequence: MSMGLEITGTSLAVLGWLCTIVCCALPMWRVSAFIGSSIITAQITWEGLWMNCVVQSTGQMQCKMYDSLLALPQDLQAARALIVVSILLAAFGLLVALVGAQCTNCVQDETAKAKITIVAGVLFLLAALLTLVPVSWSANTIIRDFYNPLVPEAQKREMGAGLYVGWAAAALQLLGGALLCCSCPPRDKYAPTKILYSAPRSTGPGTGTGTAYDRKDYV
Procedure: as §1

[6] = biological target: T6, human CLDN4 (human, UniProt O14493 1-209); assay: flow cytometry, FreeStyle 293-F transfectants expressing human CLDN4, anti-human IgG Alexa Fluor 647; MFI
T6 construct: also called hCLDN4; hCLDN4/BaF
T6 sequence: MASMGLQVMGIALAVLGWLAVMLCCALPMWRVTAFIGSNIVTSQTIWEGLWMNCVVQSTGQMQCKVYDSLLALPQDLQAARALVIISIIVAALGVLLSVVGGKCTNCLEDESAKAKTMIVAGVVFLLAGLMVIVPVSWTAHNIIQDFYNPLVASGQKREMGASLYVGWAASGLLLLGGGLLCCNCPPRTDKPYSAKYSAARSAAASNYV

[7] = biological target: T7, mouse CLDN4 (mouse, UniProt O35054 1-210); assay: flow cytometry, FreeStyle 293-F transfectants expressing mouse CLDN4, anti-human IgG Alexa Fluor 647; MFI
T7 construct: also called mCLDN4; mCLDN4/FS293
T7 sequence: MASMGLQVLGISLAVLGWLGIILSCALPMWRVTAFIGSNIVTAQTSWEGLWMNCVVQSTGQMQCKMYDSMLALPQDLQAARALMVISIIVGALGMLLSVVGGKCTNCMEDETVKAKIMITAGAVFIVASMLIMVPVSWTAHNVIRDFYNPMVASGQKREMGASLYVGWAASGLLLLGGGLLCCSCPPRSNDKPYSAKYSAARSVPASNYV
Procedure: as §1

[8] = biological target: T6, human CLDN4; assay: flow cytometry on hCLDN4/BaF (Ba/F3 transfectant), Alexa Fluor 488 anti-human IgG; histogram against KLH/TR01
Procedure: Amino acid sequence are highly conserved among CLDN3, CLDN4, CLDN6 and CLDN9. Thus we examined CLDN6 binding specificity by FACS analysis. hCLDN6/BaF, hCLDN3/BaF, hCLDN4/BaF, and hCLDN9/BaF were incubated with CS2201, CS2961, AH05/TR01 and 6PHU3/TR01 at 15 micro g/ml. KLH/TR01 generated in Example 2-3 was used as a staining control. Binding of each antibody was detected with Alexa Fluor 488-conjugated anti human IgG (Invitrogen). Dead cells were separated by eFlour 780 (Invitrogen) staining.

Row | Binder | binding result [1] | binding result [2] | binding result [3] | binding result [4] | binding result [5] | binding result [6] | binding result [7] | binding result [8]
1 | B1 | binds | no binding (tested: 10 micro g/mL) | no binding (tested: 10 micro g/mL) | no binding (tested: 10 micro g/mL) | no binding (tested: 10 micro g/mL) | no binding (tested: 10 micro g/mL) | no binding (tested: 10 micro g/mL) | 
2 | B2 | binds |  |  | no binding (tested: 10 micro g/mL) | no binding (tested: 10 micro g/mL) |  | no binding (tested: 10 micro g/mL) | no binding (tested: 15 micro g/ml)
